What was measured:
Assay in all cases: BLI
[1] = molecular target: ZM109_FL
[2] = molecular target: YU2_FL
[3] = molecular target: RSC3

| Binder | Kd [1] [nM] | Kd [2] [nM] | Kd [3] [nM] |
| --- | --- | --- | --- |
| G54A (heavy chain) (antibody, V domains shown) VH: QVQLVQSGGQMKKPGESMRISCRASGYEFIDCTLNWIRLAPGKRPEWMGWLKPRAGAVNYARPLQGRVTMTRDVYSDTAFLELRSLTVDDTAVYFCTRGKNCDYNWDFEHWGRGTPVIVSS VL: EIVLTQSPGTLSLSPGETAIISCRTSQYGSLAWYQQRPGQAPRLVIYSGSTRAAGIPDRFSGSRWGPDYNLTISNLESGDFGVYYCQQYEFFGQGTKVQVDI | 76 | 6.51 | 2.64 |
| V3A (light chain) (antibody, V domains shown) VH: QVQLVQSGGQMKKPGESMRISCRASGYEFIDCTLNWIRLAPGKRPEWMGWLKPRGGAVNYARPLQGRVTMTRDVYSDTAFLELRSLTVDDTAVYFCTRGKNCDYNWDFEHWGRGTPVIVSS VL: EIALTQSPGTLSLSPGETAIISCRTSQYGSLAWYQQRPGQAPRLVIYSGSTRAAGIPDRFSGSRWGPDYNLTISNLESGDFGVYYCQQYEFFGQGTKVQVDI | 54.7 | 27.6 | 6.09 |
